Measurements published in patent publication US20250011363A1, “OPTIMIZED SHORTENED PEPTIDE THAT BINDS TO ACETYLCHOLINE RECEPTOR, AND USE THEREOF” (SKINMED CO., LTD., priority 2021, published 2025).
One block for each binder: values may come before it.

Molecular target: acetylcholine receptor
Assay: SPR, AchR immobilized on chip, peptide 10 uM

Binding affinity (RU): 59 RU
B1: 5mer-457 (peptide)
peptide: RGQYK

Binding affinity (RU): 60 RU
B2: 5mer-490 (peptide)
peptide: RWLLK

Binding affinity (RU): 81 RU
B3: 5mer-491 (peptide)
peptide: KQIRR

Binding affinity (RU): 56 RU
B4: 5mer-475 (peptide)
peptide: RRFCK

Binding affinity (RU): 61 RU
B5: 5mer-455 (peptide)
peptide: RWLYK

Binding affinity (RU): 69 RU
B6: 5mer-471 (peptide)
peptide: RGYLR

Binding affinity (RU): 75 RU
B7: 5mer-191 (peptide)
peptide: RVRCR

Binding affinity (RU): 87 RU
B8: 5mer-178 (peptide)
peptide: RRVLK

Binding affinity (RU): 75 RU
B9: 5mer-192 (peptide)
peptide: KSFRK

Binding affinity (RU): 64 RU
B10: 5mer-167 (peptide)
peptide: KQFRK

Binding affinity (RU): 78 RU
B11: 5mer-481 (peptide)
peptide: KSYCK

Binding affinity (RU): 80 RU
B12: 5mer-492 (peptide)
peptide: RVVLR

Binding affinity (RU): 65 RU
B13: 5mer-189 (peptide)
peptide: RLLQK

Binding affinity (RU): 57 RU
B14: 5mer-155 (peptide)
peptide: KRYLR

Binding affinity (RU): 70 RU
B15: 5mer-476 (peptide)
peptide: RSICK

Binding affinity (RU): 74 RU
B16: 5mer-180 (peptide)
peptide: KQRYR

Binding affinity (RU): 57 RU
B17: 5mer-493 (peptide)
peptide: KSIRR

Binding affinity (RU): 51 RU
B18: 5mer-483 (peptide)
peptide: RSISR

Binding affinity (RU): 61 RU
B19: 5mer-169 (peptide)
peptide: RWYRK

Binding affinity (RU): 51 RU
B20: 5mer-484 (peptide)
peptide: RSFQK

Binding affinity (RU): 82 RU
B21: 5mer-172 (peptide)
peptide: RSRRR

Binding affinity (RU): 55 RU
B22: 5mer-472 (peptide)
peptide: RRYRK

Binding affinity (RU): 53 RU
B23: 5mer-160 (peptide)
peptide: RSIRR

Binding affinity (RU): 69 RU
B24: 5mer-469 (peptide)
peptide: KSRRR

Binding affinity (RU): 78 RU
B25: 5mer-157 (peptide)
peptide: KGRCR

Binding affinity (RU): 59 RU
B26: 5mer-173 (peptide)
peptide: RSVSR

Binding affinity (RU): 76 RU
B27: 5mer-459 (peptide)
peptide: RSQLR

Binding affinity (RU): 74 RU
B28: 5mer-187 (peptide)
peptide: RWVCR

Binding affinity (RU): 75 RU
B29: 5mer-482 (peptide)
peptide: KQFCK

Binding affinity (RU): 61 RU
B30: 5mer-163 (peptide)
peptide: KSLCK

Binding affinity (RU): 52 RU
B31: 5mer-463 (peptide)
peptide: KWYTK

Binding affinity (RU): 83 RU
B32: 5mer-467 (peptide)
peptide: RRIYR

Binding affinity (RU): 64 RU
B33: 5mer-186 (peptide)
peptide: KRLQR

Binding affinity (RU): 55 RU
B34: 5mer-179 (peptide)
peptide: RLYTK

Binding affinity (RU): 75 RU
B35: 5mer-473 (peptide)
peptide: RLVQR

Binding affinity (RU): 65 RU
B36: 5mer-458 (peptide)
peptide: RRFLK

Binding affinity (RU): 57 RU
B37: 5mer-470 (peptide)
peptide: KQRSK

Binding affinity (RU): 59 RU
B38: 5mer-174 (peptide)
peptide: KGRQR

Binding affinity (RU): 63 RU
B39: 5mer-489 (peptide)
peptide: KSYSR

Binding affinity (RU): 62 RU
B40: 5mer-487 (peptide)
peptide: RLVTK

Binding affinity (RU): 80 RU
B41: 5mer-193 (peptide)
peptide: RVIRK

Binding affinity (RU): 84 RU
B42: 5mer-168 (peptide)
peptide: KLFSK

Binding affinity (RU): 58 RU
B43: 5mer-477 (peptide)
peptide: KGYSR

Binding affinity (RU): 82 RU
B44: 5mer-188 (peptide)
peptide: KWFSK

Binding affinity (RU): 73 RU
B45: 5mer-159 (peptide)
peptide: RGQRR

Binding affinity (RU): 80 RU
B46: 5mer-474 (peptide)
peptide: RQFLR

Binding affinity (RU): 56 RU
B47: 5mer-165 (peptide)
peptide: KWRSK

Binding affinity (RU): 62 RU
B48: 5mer-170 (peptide)
peptide: RLICK

Binding affinity (RU): 70 RU
B49: 5mer-182 (peptide)
peptide: RVLSK

Binding affinity (RU): 85 RU
B50: 5mer-156 (peptide)
peptide: KGLRK

Binding affinity (RU): 68 RU
B51: 5mer-184 (peptide)
peptide: KLQCR

Binding affinity (RU): 70 RU
B52: 5mer-479 (peptide)
peptide: RQYYK

Binding affinity (RU): 55 RU
B53: 5mer-166 (peptide)
peptide: KSFQR

Binding affinity (RU): 58 RU
B54: 5mer-485 (peptide)
peptide: KRQRK

Binding affinity (RU): 65 RU
B55: 5mer-158 (peptide)
peptide: RWQTK

Binding affinity (RU): 64 RU
B56: 5mer-183 (peptide)
peptide: KRVYR

Binding affinity (RU): 52 RU
B57: 5mer-456 (peptide)
peptide: RLVCK

Binding affinity (RU): 53 RU
B58: 5mer-486 (peptide)
peptide: RWLQR

Binding affinity (RU): 74 RU
B59: 5mer-460 (peptide)
peptide: RLQQR

Binding affinity (RU): 77 RU
B60: 5mer-177 (peptide)
peptide: RWVRK

Binding affinity (RU): 51 RU
B61: 5mer-162 (peptide)
peptide: RGYQR

Binding affinity (RU): 58 RU
B62: 5mer-488 (peptide)
peptide: KVRSR

Binding affinity (RU): 74 RU
B63: 5mer-461 (peptide)
peptide: KQLLK

Binding affinity (RU): 77 RU
B64: 5mer-454 (peptide)
peptide: RQVLR

Binding affinity (RU): 53 RU
B65: 5mer-466 (peptide)
peptide: RRVRK

Binding affinity (RU): 54 RU
B66: 5mer-164 (peptide)
peptide: KSICK

Binding affinity (RU): 55 RU
B67: 5mer-171 (peptide)
peptide: KSIQR

Binding affinity (RU): 86 RU
B68: 5mer-185 (peptide)
peptide: RRYRR

Binding affinity (RU): 54 RU
B69: 5mer-468 (peptide)
peptide: RWQCK

Binding affinity (RU): 63 RU
B70: 5mer-175 (peptide)
peptide: RWQLK

Binding affinity (RU): 52 RU
B71: 5mer-176 (peptide)
peptide: RVLYK

Binding affinity (RU): 72 RU
B72: 5mer-181 (peptide)
peptide: RSLLK

Binding affinity (RU): 52 RU
B73: 5mer-161 (peptide)
peptide: KWVTK

Binding affinity (RU): 75 RU
B74: 5mer-478 (peptide)
peptide: RVQTK

Binding affinity (RU): 84 RU
B75: 5mer-190 (peptide)
peptide: RWRSR

Binding affinity (RU): 57 RU
B76: 5mer-464 (peptide)
peptide: RGVTR

Binding affinity (RU): 69 RU
B77: 5mer-462 (peptide)
peptide: RWQSK

Binding affinity (RU): 75 RU
B78: 5mer-480 (peptide)
peptide: RWYLR

Binding affinity (RU): 57 RU
B79: 5mer-465 (peptide)
peptide: RWFRK
